{"source": "paper PMC8222801", "molecular_target": "CmMYB6_N3 (Chrysanthemum morifolium)", "sequence (main, as listed by the source)": "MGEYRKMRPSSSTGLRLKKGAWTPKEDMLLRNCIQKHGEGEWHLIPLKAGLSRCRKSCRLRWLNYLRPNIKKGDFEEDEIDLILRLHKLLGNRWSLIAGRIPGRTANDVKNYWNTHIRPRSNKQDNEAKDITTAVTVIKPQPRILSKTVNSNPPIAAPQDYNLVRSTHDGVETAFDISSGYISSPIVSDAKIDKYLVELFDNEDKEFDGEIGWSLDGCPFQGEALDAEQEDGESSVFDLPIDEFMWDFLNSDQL"}
{"substance": "CmbHLH2^Full_L (from UniProt A0A0S3J3I7 1-613) (natural protein)", "values": [{"measurement": "GUS activity driven by the CmCHS promoter in tobacco leaves co-infiltrated with CmbHLH2^Full and full-length CmMYB6 (untagged effectors)", "result": 5, "unit": "fold"}, {"measurement": "GUS activity driven by the CmDFR promoter in tobacco leaves co-infiltrated with CmbHLH2^Full and full-length CmMYB6 (untagged effectors)", "result": 26, "unit": "fold"}]}
